The target in the assay is CD81 on Huh7.5 cells (human) (UniProt P60033). Description: cell-based or functional assay.
Chain of UniProt P60033 (P60033 whole entry): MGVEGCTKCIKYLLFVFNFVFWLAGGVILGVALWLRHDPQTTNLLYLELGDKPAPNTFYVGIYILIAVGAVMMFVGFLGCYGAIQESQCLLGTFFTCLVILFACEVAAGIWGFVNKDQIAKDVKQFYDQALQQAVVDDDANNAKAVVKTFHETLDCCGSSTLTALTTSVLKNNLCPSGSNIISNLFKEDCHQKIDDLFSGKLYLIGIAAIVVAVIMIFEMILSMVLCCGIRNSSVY

As to “anti-CD81 (JS-81; BD Biosciences Pharmingen, Franklin Lakes, N.J.) (antibody)”, the % inhibition of infection of Huh7.5 cells (FFU) with genotype 2a recombinant J6/JFH1 at 0.02 µg/mL anti-CD81 was < 50 % inhibition, the % inhibition of infection of Huh7.5 cells (FFU) with genotype 2a recombinant J6/JFH1 at 2.5 µg/mL anti-CD81 is > 90 % inhibition, the % inhibition of infection of Huh7.5 cells (FFU) with genotype 7a recombinant QC69/JFH1 at 0.02 µg/mL anti-CD81 was < 50 % inhibition and the % inhibition of infection of Huh7.5 cells (FFU) with genotype 7a recombinant QC69/JFH1 at 2.5 µg/mL anti-CD81 is > 90 % inhibition.

For the origin of these results see US20110294195A1.
